Reference: patent US20240368258A1 (RUTGERS THE STATE UNIVERSITY OF NEW JERSEY, published 2024)
Each block holds one binder with its values, some of them ahead of it.

How the values were obtained:
[1] = target: T1, EphA5 expressed on H460 human lung carcinoma cells (human, UniProt P54756 25-1037); assay: whole cell phage-ELISA, monovalent phage on H460 cells
T1 construct: whole, on cells; H226 cells served as the EphA5-negative cell line; also called native EphA5 target; endogenous EphA5 expressed on the cell surface
Protocol: (§1) Single scFv clones were produced as monovalent phage and tested for binding on H460 human lung carcinoma (EphA5 positive) and H226 human lung squamous cell carcinoma (EphA5 negative) cell lines in vitro. Briefly, cells were seeded on 96-well plate, blocked and incubated with phage displaying the scFv of interest at different concentrations. After washing, cell surface bound phage were detected with the antiM13-HRP conjugated mAb (GE).

[2] = target: T2, GRP78 on the surface of MCF-7 human breast cancer cells (human, UniProt P11021 19-654); assay: whole cell phage-ELISA, monovalent phage on MCF-7 cells
T2 construct: whole, on cells; also called surface GRP78; 78 kDa glucose-regulated protein
Protocol: as §1, with “FIG. 8. Phage binding on cells. […] Single” for “Single”, “MCF-7” for “H460 human lung carcinoma (EphA5 positive) and H226 human lung squamous cell carcinoma (EphA5 negative) cell lines”
Single scFv clones were produced as monovalent phage and tested for binding on MCF-7 in vitro. Briefly, cells were seeded on 96-well plate, blocked and incubated with phage displaying the scFv of interest at different concentrations. After washing, cell surface bound phage were detected with the antiM13-HRP conjugated mAb (GE). […] Anti-GRP78 phage bind specifically to cells expressing surface GRP78.

T2 sequence (P11021 19-654): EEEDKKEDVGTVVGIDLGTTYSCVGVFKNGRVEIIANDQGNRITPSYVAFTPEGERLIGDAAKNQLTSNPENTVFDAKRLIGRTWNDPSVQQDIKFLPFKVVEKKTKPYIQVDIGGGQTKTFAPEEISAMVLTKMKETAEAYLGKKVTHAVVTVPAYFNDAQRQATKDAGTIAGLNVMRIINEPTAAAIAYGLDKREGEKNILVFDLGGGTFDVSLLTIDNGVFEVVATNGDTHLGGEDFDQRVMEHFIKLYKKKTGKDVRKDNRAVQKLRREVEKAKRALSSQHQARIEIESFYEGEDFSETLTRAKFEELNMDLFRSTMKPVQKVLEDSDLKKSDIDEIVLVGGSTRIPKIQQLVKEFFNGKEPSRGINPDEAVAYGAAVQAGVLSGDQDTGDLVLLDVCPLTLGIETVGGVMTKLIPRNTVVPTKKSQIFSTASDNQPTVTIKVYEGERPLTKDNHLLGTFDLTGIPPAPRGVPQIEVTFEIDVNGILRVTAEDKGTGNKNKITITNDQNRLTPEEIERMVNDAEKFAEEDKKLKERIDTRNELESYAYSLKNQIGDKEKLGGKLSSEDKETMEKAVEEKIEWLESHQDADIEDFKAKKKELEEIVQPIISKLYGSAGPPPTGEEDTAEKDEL
T1 sequence (P54756 25-1037): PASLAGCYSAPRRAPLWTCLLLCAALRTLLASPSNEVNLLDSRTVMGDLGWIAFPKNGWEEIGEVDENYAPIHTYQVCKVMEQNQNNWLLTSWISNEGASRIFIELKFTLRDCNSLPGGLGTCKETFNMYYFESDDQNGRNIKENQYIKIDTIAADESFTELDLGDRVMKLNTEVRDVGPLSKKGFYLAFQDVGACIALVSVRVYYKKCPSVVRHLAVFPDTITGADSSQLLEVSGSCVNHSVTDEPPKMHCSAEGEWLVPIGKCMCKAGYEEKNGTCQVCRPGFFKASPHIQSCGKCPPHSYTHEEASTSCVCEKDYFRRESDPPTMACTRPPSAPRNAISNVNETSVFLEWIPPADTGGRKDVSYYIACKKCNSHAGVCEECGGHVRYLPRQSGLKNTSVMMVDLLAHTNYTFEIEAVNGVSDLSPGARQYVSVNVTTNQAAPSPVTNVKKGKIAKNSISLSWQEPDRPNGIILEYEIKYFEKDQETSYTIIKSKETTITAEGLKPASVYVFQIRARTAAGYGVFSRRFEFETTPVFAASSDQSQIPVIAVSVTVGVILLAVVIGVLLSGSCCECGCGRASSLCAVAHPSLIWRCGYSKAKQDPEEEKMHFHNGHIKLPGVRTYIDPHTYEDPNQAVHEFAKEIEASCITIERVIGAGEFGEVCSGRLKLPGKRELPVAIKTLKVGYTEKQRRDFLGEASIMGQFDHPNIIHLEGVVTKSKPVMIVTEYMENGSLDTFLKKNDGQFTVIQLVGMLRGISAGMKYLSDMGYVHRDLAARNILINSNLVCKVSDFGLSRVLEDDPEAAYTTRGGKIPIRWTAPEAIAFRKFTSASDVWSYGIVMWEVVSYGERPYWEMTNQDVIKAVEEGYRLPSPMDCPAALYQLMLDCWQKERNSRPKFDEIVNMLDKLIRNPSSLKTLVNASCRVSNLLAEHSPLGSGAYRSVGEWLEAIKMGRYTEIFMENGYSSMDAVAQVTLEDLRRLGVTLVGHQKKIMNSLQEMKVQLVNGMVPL

binding result [1]: binds
B1: antiEphA5_F31 scFv (scFv)
scFv: SYELTQPPSVSVAPGKTARITCEGNNIGSKGVHWYQQKPGQAPALVVYDGSDRPSGIPERFSGSNSGNTATLTISRVEAGDEADYYCQVWDNSSDHPNYVFGTRTKLTVLSGGSTKTSYNVYYTKLSSSGTQVQLVETGGGLVQPGGSLRLSCAASGFTFSSYAMSWVRQAPGKGLEWVSAISGSGGSTYYADSVKGRFTISRDNSKNTLYLQMNSLRAEDTAVYYCARVAAGDYWGQGTLVTVSS

binding result [2]: binds
B3: antiGRP78_F6 scFv (scFv)
scFv: SYELTQPHSVSVAPGQTARITCGGDNIGSKSVHWYQQRPGQAPVLVVYDDSDRPSGIPERFSGSNSENTATLTISGVEAGDEADYYCQVWDSTSHHVVFGGGTKLTVLSGGSTITSYNVYYTKLSSSGTQVQLQQSGPGLVKPPQTLSLTCAISGDSVSSNSAAWNWIRQSPSRGLEWLGRTYYRSKWYNDYAVSVKSRITINPDTSKNQFSLQLNSVTPEDTAVYYCARDPYYYDSSGYYYFDAFDIWGQGTMVTVSS

The next lines start with the binder.

B2: antiGRP78_B4 scFv (scFv)
scFv: SYVLTQPPSVSVAPGKTATITCGGDDIGSKSVHWYQQKPGQAPVLVVYDDGDRPSGIPERFSGSNSGNTATLAISRVEAGDEADYYCQVWDSSSDQYVFGSGTKLTVLSGGSTITSYNVYYTKLSSSGTQVRLQESGPGLVKPSQTLSLTCTVSGGSISSGGYYWSWIRQHPGKGLEWIGYIYYSGSTYYNPSLESRVTISVDTSKNQFSLKLSSVTAADTAVYYCARYSSIDAFEIWGQGTMVTVSS
binding result [2]: binds

B4: antiEphA5_T22 scFv (scFv)
scFv: QPVLTQSSSLSASPGASVSLTCTLRSGINVGPYRMYWYQQKPGSPPQYLLSYKSDSDTQQASGVPSRFSGSKDASANAGILLISGLQSEDEADYYCMIWHNNAVVFGGGTKLTVLSGGSTITSYNVYYTKLSSSGTQVQLVQSGTEVKKPGASVKVSCKVSGYSLSELSMHWVRQAPGKGLEWMGSFDPEDGETTYAQRFQGRVTMTEDTSTDTAYMELRSLTSDDTAVYYCAREIWSGYAYFDLWGRGTLVTVSS
binding result [1]: binds
